Reference: the Immune Epitope Database (IEDB)

Tests used:
Experiment in all cases: IEDB peptide-MHC binding, purified MHC/competitive/radioactivity; ≥ and ≤ were set here for values at or beyond the usual limits of such assays
HLA-A*02:03 = target: HLA-A*02:03
HLA-A*68:02 = target: HLA-A*68:02
HLA-A*02:01 = target: HLA-A*02:01
HLA-A*02:06 = target: HLA-A*02:06
HLA-A*02:02 = target: HLA-A*02:02
[1] = source organism: Vaccinia virus WR
[2] = source organism: Hepacivirus hominis
[3] = source organism: Influenza A virus

Row | Sequence | IC50 (HLA-A*02:03; source organism: SARS-CoV1) | IC50 (HLA-A*68:02; source organism: SARS-CoV1) | IC50 (HLA-A*02:01; source organism: SARS-CoV1) | IC50 (HLA-A*02:06; source organism: SARS-CoV1) | IC50 (HLA-A*02:02; source organism: SARS-CoV1) | IC50 (HLA-A*02:03; [1]) | IC50 (HLA-A*68:02; [1]) | IC50 (HLA-A*02:01; [1]) | IC50 (HLA-A*02:06; [1]) | IC50 (HLA-A*02:02; [1]) | also measured
1 | MLLTFLTSLL | 7.3 nM | 299 nM | 11 nM | 25 nM | 0.73 nM | – | – | – | – | – | –
2 | TIAGGVCYYL | – | – | – | – | – | 34 nM | 0.13 nM | 0.24 nM | 4 nM | 0.036 nM | –
3 | RLRQDTEDI | – | – | – | – | – | 387 nM | 4170 nM | 219 nM | 4580 nM | 230 nM | –
4 | LLFQLCTFT | 3.8 nM | 855 nM | 833 nM | 11 nM | 22 nM | – | – | – | – | – | –
5 | KVTGSYNLV | – | – | – | – | – | 43 nM | 538 nM | 754 nM | 193 nM | 66 nM | –
6 | YLGIFKNNDV | – | – | – | – | – | 17 nM | 696 nM | 16 nM | 285 nM | 15 nM | –
7 | YVIPDELIDV | – | – | – | – | – | 14 nM | 350 nM | 23 nM | 12 nM | 18 nM | –
8 | QLMCQPILLL | 217 nM | 2310 nM | 12 nM | 325 nM | 92 nM | – | – | – | – | – | –
9 | ALLSCISVPV | – | – | – | – | – | – | – | – | – | – | IC50 (HLA-A*02:03; [2]): 43 nM; IC50 (HLA-A*68:02; [2]): 1270 nM; IC50 (HLA-A*02:01; [2]): 28 nM; IC50 (HLA-A*02:06; [2]): 76 nM; IC50 (HLA-A*02:02; [2]): 41 nM
10 | HAFLCLFLL | 46 nM | 10 nM | 2.1 nM | 1.2 nM | 21 nM | – | – | – | – | – | –
11 | LVFLWLLWPV | 1.9 nM | 18 nM | 4.9 nM | 0.56 nM | 0.93 nM | – | – | – | – | – | –
12 | DQLVFNSISA | – | – | – | – | – | 289 nM | 4130 nM | 527 nM | 759 nM | 206 nM | –
13 | WVMDTLNGI | – | – | – | – | – | 1 nM | 0.44 nM | 12 nM | 0.73 nM | 9.8 nM | –
14 | LMSFTILCLV | 91 nM | 40 nM | 8.4 nM | 40 nM | 0.34 nM | – | – | – | – | – | –
15 | DVSLSAYII | – | – | – | – | – | 755 nM | 591 nM | 1500 nM | 4380 nM | 691 nM | –
16 | YQCGHYTHI | 15 nM | 2920 nM | 20 nM | 9.2 nM | 72 nM | – | – | – | – | – | –
17 | VITYCLVTHM | – | – | – | – | – | 582 nM | 387 nM | 1320 nM | 2620 nM | 478 nM | –
18 | TQWSLFFFV | 540 nM | 104 nM | 0.77 nM | 0.81 nM | 80 nM | – | – | – | – | – | –
19 | MLLAYLVRI | – | – | – | – | – | – | – | – | – | – | IC50 (HLA-A*02:03; [2]): 12 nM; IC50 (HLA-A*68:02; [2]): 1830 nM; IC50 (HLA-A*02:01; [2]): 3.3 nM; IC50 (HLA-A*02:06; [2]): 5 nM; IC50 (HLA-A*02:02; [2]): 6.6 nM
20 | CIVQSVLRDI | – | – | – | – | – | 158 nM | 3480 nM | 1180 nM | 849 nM | 218 nM | –
21 | GLYIPGTSV | – | – | – | – | – | 17 nM | 904 nM | 75 nM | 1740 nM | 111 nM | –
22 | LIVMLLFAGV | – | – | – | – | – | – | – | – | – | – | IC50 (HLA-A*02:03; [2]): 358 nM; IC50 (HLA-A*68:02; [2]): 4290 nM; IC50 (HLA-A*02:01; [2]): 1470 nM; IC50 (HLA-A*02:06; [2]): 169 nM; IC50 (HLA-A*02:02; [2]): 3390 nM
23 | TLIDFYLCFL | 3.6 nM | 151 nM | 2.2 nM | 3 nM | 0.041 nM | – | – | – | – | – | –
24 | VNNAVVMPA | – | – | – | – | – | – | – | – | – | – | IC50 (HLA-A*02:03; [3]): 712 nM; IC50 (HLA-A*68:02; [3]): 1910 nM; IC50 (HLA-A*02:01; [3]): 468 nM; IC50 (HLA-A*02:06; [3]): 828 nM; IC50 (HLA-A*02:02; [3]): 231 nM
25 | LIVNSVLLFL | 90 nM | 169 nM | 27 nM | 11 nM | 3.7 nM | – | – | – | – | – | –
26 | IAVSVYGAI | – | – | – | – | – | 124 nM | 7.8 nM | 884 nM | 1100 nM | 1480 nM | –
27 | YSMAGNWAKV | – | – | – | – | – | – | – | – | – | – | IC50 (HLA-A*02:03; [2]): 17 nM; IC50 (HLA-A*68:02; [2]): 28 nM; IC50 (HLA-A*02:01; [2]): 175 nM; IC50 (HLA-A*02:06; [2]): 425 nM; IC50 (HLA-A*02:02; [2]): 75 nM
